Experimental data published in the supplement of paper PMC9170038.

Test system: MS2 coat protein
Test: apparent KD of MS2 coat protein; designed switch direction (-1 OFF switch, 1 ON switch): -1; higher = weaker reporter binding
Method in brief: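 Designed RNA switches with common flanks were transcribed on Illumina chips by stalled E. coli RNA polymerase and titrated with SNAP-549-labelled MS2 coat protein, from 0.7 or 1.5 nM doubling to 3 µM, in Tris-HCl pH 7.5 buffer with KCl, MgCl2, BSA, DTT, tRNA and Tween-20. Steps lasted 0.8–1.5 h (lowest) to 10–20 min (highest). Titrations ran without input, with 200 uM small-molecule ligand, or with an oligonucleotide input. Normalised cluster fluorescence was curve-fitted, and apparent KD is the per-design median over clusters.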

[1] = Eterna round: R95, input ligand: FMN 200 uM
[2] = Eterna round: R95, input ligand: microRNA oligo, concentration not stated
[3] = Eterna round: R95, input ligand: none
[4] = input ligand: microRNA oligo, concentration not stated

## AAUAACAAGUAGAUCCUAAACAUGAGGAUCACCCAUGUGCUCGUCUUGUAAAGUACUAUCACGAAAGUGAUAGUACA [Sensor 3, v1 - 58] (puzzle: Sensor v3, turn-off variant 1)
[1]
  apparent KD of MS2 coat protein: 67 nM
[2]
  apparent KD of MS2 coat protein: 360 nM
[3]
  apparent KD of MS2 coat protein: 115 nM

## UUAUACGUUGAGGAUAUGCGAAUUAGUAUAGUUGCAGAAGGCGAUACAUGAGGAUCACCCAUGUUUAUGGGCAU [LRO-Ex6-06] (puzzle: Exclusion 6)
[2]
  apparent KD of MS2 coat protein: 152 nM

## GUCUGAGCAGGAUAUACAUGAGGAUCACCCAUGUUGGUUCAGCGACGAUAGUCGCAAUGUAGAAGGGCUCAGAC [E3/9-D1] (Eterna round: R97, puzzle: Exclusion 3)
Input ligand: FMN 200 uM
  apparent KD of MS2 coat protein: 73.5 nM
Input ligand: none
  apparent KD of MS2 coat protein: 258 nM

## GCCAGAGCAGGAUAUUCAAUAUUCCACAUGAGGAUCACCCAUGUCCAGCGAAAGCUGGAGGGAGAAGGGCUCUGGC [Fiskers Ex 5 - 8] (puzzle: Exclusion 5)
[1]
  apparent KD of MS2 coat protein: 27.3 nM
[2]
  apparent KD of MS2 coat protein: 43.6 nM
[3]
  apparent KD of MS2 coat protein: 56.3 nM

## GAGAAACAUGAGGAUCACCCAUGUGAGGAUAUGAGCACGCCGGUGACGGUGAUAAGAAUCAGAAGGCACAAAGG [Mat - Exclusion 1 - JL Mod - D33] (Eterna round: R97, puzzle: Exclusion 1)
Input ligand: FMN 200 uM
  apparent KD of MS2 coat protein: 422 nM
Input ligand: none
  apparent KD of MS2 coat protein: 67.6 nM

## CAGUACUGAGGAUAUACAUGAGGAUCACCCAUGUUCCAAGGCUAGGAUACUAGCAAAGGUAGAAGGCAGUACUG [Mat - Exclusion 3 - Eli Mod - D26] (Eterna round: R97, puzzle: Exclusion 3)
Input ligand: FMN 200 uM
  apparent KD of MS2 coat protein: 150 nM
Input ligand: none
  apparent KD of MS2 coat protein: 17.6 nM

## AAUGUGUAAGGAUAUCCGAAAAGCGAGCGAAAGCGAGCGAAGGAGAAGGUACAUGAGGAUCACCCAUGUAAGGG [AK-MS2ROC-r4-exclusion4-11.6] (Eterna round: R97, puzzle: Exclusion 4)
Input ligand: FMN 200 uM
  apparent KD of MS2 coat protein: 71.5 nM
Input ligand: none
  apparent KD of MS2 coat protein: 530 nM

## AUUUUAAUAUAGGAUAUCGAUUUUAUUAUUUAACGAGAAGGAUAAACAUGAGGAUCACCCAUGUGGUAUCAUGG [JMFs Solution 3] (puzzle: Exclusion 6)
[2]
  apparent KD of MS2 coat protein: 123 nM

## AGCUAGUCAGGAUAUUCUAAUAAUUACAUGAGGAUCACCCAUGUGAAGAGACAAGGGUGUGAAGAAGGGACUAGCG [Omei Ex5 A1] (Eterna round: R97, puzzle: Exclusion 5)
Input ligand: FMN 200 uM
  apparent KD of MS2 coat protein: 188 nM
Input ligand: none
  apparent KD of MS2 coat protein: 600 nM

## AAUACUAACAGCUGACUGUUAGUACUGUAGGUUUGUGUUACAUGAGGAUCACCCAUGUCCUCAUAGGCUCGUCUUGU [Mat - Sensor v3 - Turn-off var 2 - D98] (puzzle: Sensor v3, turn-off variant 2)
[1]
  apparent KD of MS2 coat protein: 586 nM
[2]
  apparent KD of MS2 coat protein: 322 nM
[3]
  apparent KD of MS2 coat protein: 697 nM

## CAAGCUUUGCGAGGAUAUGAUGGCCGAUAUGCCUCAGAAGGCGCAGAAACUUGAGGAUCACCCAAGUGAUGCAACGACGACCAU [Mutated MS2 EX1.12] (Eterna round: R96, puzzle: Exclusion NG 1)
Input ligand: FMN 200 uM
  apparent KD of MS2 coat protein: 27.1 nM
[4]
  apparent KD of MS2 coat protein: 10.7 nM
Input ligand: none
  apparent KD of MS2 coat protein: 15.7 nM

## GGGAAACAUGAGGAUCACCCAUGUAAGGAUAUGCAAAAGGAUAUAGAAGGAAAAAAAAGCAGAAGGUACAAAGG [salish99-ex1_r3_100] (puzzle: Exclusion 1)
[1]
  apparent KD of MS2 coat protein: 68.8 nM
[2]
  apparent KD of MS2 coat protein: 59.8 nM
[3]
  apparent KD of MS2 coat protein: 57.3 nM

## CUGAGCUGAGGAUAUACAUGAGGAUCACCCAUGUGUUCCAGCUUGGGUACAGGCACAUGUAGAAGGCAGUUCGG [Mod of JL - ex3-3.35 Brourd mod] (puzzle: Exclusion 3)
[2]
  apparent KD of MS2 coat protein: 62 nM

## GGUUGGCGAGGAUAUACAUGAGGAUCACCCAUGUGAGAGAAAAAAGUGAGGACGAAAAGUAGAAGGCGCUGACG [salish99_ex3_r3_032] (puzzle: Exclusion 3)
[1]
  apparent KD of MS2 coat protein: 223 nM
[2]
  apparent KD of MS2 coat protein: 69.1 nM
[3]
  apparent KD of MS2 coat protein: 61.6 nM

## UUUAUAAUAAGAUCAAUUAAUUAACAUGAGGAUCACCCAUGUGAGGAUAUCAGCUCGUGUAGAGCUGAGAAGGCACAAUAUAAG [ExNG3/17-B3] (Eterna round: R96, puzzle: Exclusion NG 3)
[4]
  apparent KD of MS2 coat protein: 36.2 nM

## AAAUUAAGUGUGAGGAUAUGCUGGUCCUUAGAUCAGCAGAAGGCACAUGAGGAUCACCCAUGUAAUAUAUUUAA [Mat - Exclusion 4 - JL Mod - D50] (puzzle: Brourd's mod of Exclusion 4)
[2]
  apparent KD of MS2 coat protein: 35.4 nM

## AAACAGGAAGGAUAUACAUGAGGAUCACCCAUGUAGGAAAACCUACCAAAAGACCCAAGUAGAAGGUCCGAAAA [jl-ex3-4.64 ViennaUCT mod] (Eterna round: R97, puzzle: Exclusion 3)
Input ligand: FMN 200 uM
  apparent KD of MS2 coat protein: 25.8 nM
Input ligand: none
  apparent KD of MS2 coat protein: 15.3 nM

## AUUUAGCAAGCCUGAUCCUACAUGAGGAUCACCCAUGUAGUUCGUCUUAUUUGAAGACAACACAAAAGUGUUGUCUU [Omei Mir OFFv1 B7] (Eterna round: R97, puzzle: Sensor, turn-off variant 1)
Input ligand: FMN 200 uM
  apparent KD of MS2 coat protein: 18.3 nM
Input ligand: none
  apparent KD of MS2 coat protein: 18.5 nM

## CUAUGUUAGCAGGAUAUGCCAUUAUUCCUUUUCGCAGAAGGGCUUACAUGAGGAUCACCCAUGUUACAUUUCUU [JR_E6_Sub085] (puzzle: Exclusion 6)
[2]
  apparent KD of MS2 coat protein: 13.3 nM

## AGGUGUAGAGGAUAUCUCUUCUCUCACAUGAGGAUCACCCAUGUCCUGGGCACCAAGGAGAGAGAAGGCUACACCA [Omei Ex5 D10] (Eterna round: R97, puzzle: Exclusion 5)
Input ligand: FMN 200 uM
  apparent KD of MS2 coat protein: 72.7 nM
Input ligand: none
  apparent KD of MS2 coat protein: 271 nM

## CCAAUGUAAGGAUAUGACAAUGGUAUCUUCGGAUACCAUUGUCAGAAGGUACAUGAGGAUCACCCAUGUACAAA [Ex4-3: 9] (puzzle: Exclusion 4)
[2]
  apparent KD of MS2 coat protein: 13.4 nM

## GGGAAGUGAGGAUAUAUGAGAGAGGCUGGACCGGAUGAGAAGUAGAAGGCACAUGAGGAUCACCCAUGUAGGGA [JR_Exclu4_Sub026] (puzzle: Exclusion 4)
[1]
  apparent KD of MS2 coat protein: 130 nM
[2]
  apparent KD of MS2 coat protein: 152 nM
[3]
  apparent KD of MS2 coat protein: 209 nM

## AAUAACAGAGGAUAUACUGUUUUAUGUGUUUGUUAUUUUGAACAUGAGGAUCACCCAUGUAGAAGGCUGAAUGA [JMF 64] (puzzle: Exclusion 2)
[2]
  apparent KD of MS2 coat protein: 27.1 nM

## AAUUAACAUGUAGGAUAUCUGCACGAUUAGUGCAGAGAAGGACAUGAGGAUCACCCAUGUAUAGCGACUUCGGUCGCAAUAAUU [ENG1/2-B1] (Eterna round: R96, puzzle: Exclusion NG 1)
Input ligand: FMN 200 uM
  apparent KD of MS2 coat protein: 161 nM
[4]
  apparent KD of MS2 coat protein: 69.5 nM
Input ligand: none
  apparent KD of MS2 coat protein: 80.6 nM

## GCGAAAGCAAACAAGUGAAACAUGAGGAUCACCCAUGUCCUCAUUUGCUCGUCUUAUAAGCUAUGCGAAAGCAUAGC [Sensor 3, v1 - 6] (puzzle: Sensor v3, turn-off variant 1)
[1]
  apparent KD of MS2 coat protein: 38 nM
[2]
  apparent KD of MS2 coat protein: 269 nM
[3]
  apparent KD of MS2 coat protein: 41.6 nM

## GUGAGGCCAGUGAGGAUAUGUGUACAACUACGUGCAUAGAAGGCACAUGAGGAUCACCCAUGUGAAUUCCCAGG [Eternabot (L1) Solution 65] (Eterna round: R97, puzzle: Brourd's mod of Exclusion 4)
Input ligand: FMN 200 uM
  apparent KD of MS2 coat protein: 14.7 nM
Input ligand: none
  apparent KD of MS2 coat protein: 14.4 nM

## UAGGUGUGAGGAUAUGGUAAAGAUAAGAUGAUGAAAGAACUCCAGAAGGCACAUGAGGAUCACCCAUGUAGAUG [JL-ex4-2.16 Jieux mod] (puzzle: Exclusion 4)
[2]
  apparent KD of MS2 coat protein: 33.3 nM

## GCACAUGAGGAUCACCCAUGUCAAUGGGAAUUCCUUCUUCAACAGGAUAUCCGAUGGAGAACGUCGGAGAAGGGUUCGCCAGUA [Eternabot solution 15] (Eterna round: R96, puzzle: Exclusion NG 3)
Input ligand: FMN 200 uM
  apparent KD of MS2 coat protein: 31.4 nM
[4]
  apparent KD of MS2 coat protein: 19.5 nM
Input ligand: none
  apparent KD of MS2 coat protein: 25.7 nM

## CUAGGGCACAAUUAAGCGCCCUAACAUGAGGAUCACCCAUGUCAGGAUAUGUAGGCAAAGACCCUACAGAAGGGACAUGUCCUA [Artileza] (Eterna round: R96, puzzle: Exclusion NG 3)
Input ligand: FMN 200 uM
  apparent KD of MS2 coat protein: 393 nM
[4]
  apparent KD of MS2 coat protein: 46.3 nM
Input ligand: none
  apparent KD of MS2 coat protein: 69.2 nM

## ACAAUGUUAGGAUAUCUGACAAUUAGUCUCGACUAGUCGAAAGAGAAGGAACAUGAGGAUCACCCAUGUAGAUC [EX4 #73] (Eterna round: R97, puzzle: Exclusion 4)
Input ligand: FMN 200 uM
  apparent KD of MS2 coat protein: 144 nM
Input ligand: none
  apparent KD of MS2 coat protein: 37.4 nM

## AGUUGGCGAGGAUAUACAUGAGGAUCACCCAUGUGAGAGAAUAAAGUGAGGAAGAAAAGUAGAAGGCGCUGACA [Mat - Exclusion 3 - Mod of Salish D9] (puzzle: Exclusion 3)
[2]
  apparent KD of MS2 coat protein: 47.7 nM

## GGAUCAUAUGUCAGGAUAUGCAGGUCCUUGGAUCUGCAGAAGGGACAUGAGGAUCACCCAUGUCAUGUAGAUCC [Mat - Exclusion 4 - Eli Mod - D54] (Eterna round: R97, puzzle: Brourd's mod of Exclusion 4)
Input ligand: FMN 200 uM
  apparent KD of MS2 coat protein: 116 nM
Input ligand: none
  apparent KD of MS2 coat protein: 25.3 nM

## AACCGUGCGGAGGAUAUUGAUAUCCCAGUCUAUCAAGAAGGCUGCACAUGAGGAUCACCCAUGUGAUCCGUGCU [Riri] (puzzle: Exclusion 6)
[2]
  apparent KD of MS2 coat protein: 23.6 nM

## GCUAGCCAUGUCAGGAUAUGCUGUACCUUGGUACAGCAGAAGGGACAUGAGGAUCACCCAUGUGCCUAGCUAGC [JL-BMX4-4.03] (Eterna round: R97, puzzle: Brourd's mod of Exclusion 4)
Input ligand: FMN 200 uM
  apparent KD of MS2 coat protein: 197 nM
Input ligand: none
  apparent KD of MS2 coat protein: 27.1 nM

## CUGAGCAGACGGAGAUCCCACAUGAGGAUCACCCAUGUCUCAAAAGCUUUUUGCUUGUCUUAUUCUCCUCUGUUCUC [Arorza] (puzzle: Sensor v3, turn-off variant 1)
[1]
  apparent KD of MS2 coat protein: 13.9 nM
[2]
  apparent KD of MS2 coat protein: 100 nM
[3]
  apparent KD of MS2 coat protein: 11.4 nM

## CCUCAACAGGUCAGGAUAUACCCAACGGCGGACGGGUAGAAGGGACAUGAGGAUCACCCAUGUCCAGAGGUGAG [Eternabot (Original) Solution 11] (Eterna round: R97, puzzle: Brourd's mod of Exclusion 4)
Input ligand: FMN 200 uM
  apparent KD of MS2 coat protein: 45.5 nM
Input ligand: none
  apparent KD of MS2 coat protein: 16.9 nM
